# Read-outs that look alike come from different tables or passages of the source.
# T1: human IL-36R on the cell surface (HEK-Blue IL-36 cells, HaCAT cells, human CD14+ monocytes) (human, UniProt Q9HB29 20-575)
# T1 sequence (looked up): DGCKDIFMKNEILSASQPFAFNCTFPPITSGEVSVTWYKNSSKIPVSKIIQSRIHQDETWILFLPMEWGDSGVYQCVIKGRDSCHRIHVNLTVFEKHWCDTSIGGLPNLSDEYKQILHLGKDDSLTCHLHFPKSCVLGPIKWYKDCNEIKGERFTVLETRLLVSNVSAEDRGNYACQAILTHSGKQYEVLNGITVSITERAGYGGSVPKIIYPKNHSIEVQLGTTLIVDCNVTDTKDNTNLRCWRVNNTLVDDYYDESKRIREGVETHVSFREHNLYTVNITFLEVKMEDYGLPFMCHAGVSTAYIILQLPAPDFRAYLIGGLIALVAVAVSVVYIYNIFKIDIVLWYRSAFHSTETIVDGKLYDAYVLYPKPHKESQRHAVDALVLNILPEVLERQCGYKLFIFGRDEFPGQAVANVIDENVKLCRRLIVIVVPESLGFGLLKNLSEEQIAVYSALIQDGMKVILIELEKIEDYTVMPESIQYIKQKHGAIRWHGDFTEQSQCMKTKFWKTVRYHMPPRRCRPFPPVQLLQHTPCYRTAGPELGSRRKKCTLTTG
# T2: hIL-36R-His (extracellular domain of human IL-36R with C-terminal His tag) (human (homo sapiens), UniProt Q9HB29 20-335)
# T2 construct: also called human hIL-36R-His
# T2 sequence: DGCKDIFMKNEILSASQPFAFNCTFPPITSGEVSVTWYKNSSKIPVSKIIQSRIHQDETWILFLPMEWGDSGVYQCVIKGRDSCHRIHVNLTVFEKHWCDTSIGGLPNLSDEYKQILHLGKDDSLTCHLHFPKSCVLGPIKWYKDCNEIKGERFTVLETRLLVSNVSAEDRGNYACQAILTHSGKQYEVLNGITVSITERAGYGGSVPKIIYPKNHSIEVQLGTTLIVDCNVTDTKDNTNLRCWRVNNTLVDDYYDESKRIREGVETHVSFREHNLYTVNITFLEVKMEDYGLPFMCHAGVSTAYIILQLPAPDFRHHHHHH
# T3: hIL-1R3-His (extracellular domain of human IL-1R3 with C-terminal His tag) (human (homo sapiens), UniProt Q9NPH3 21-359)
# T3 sequence: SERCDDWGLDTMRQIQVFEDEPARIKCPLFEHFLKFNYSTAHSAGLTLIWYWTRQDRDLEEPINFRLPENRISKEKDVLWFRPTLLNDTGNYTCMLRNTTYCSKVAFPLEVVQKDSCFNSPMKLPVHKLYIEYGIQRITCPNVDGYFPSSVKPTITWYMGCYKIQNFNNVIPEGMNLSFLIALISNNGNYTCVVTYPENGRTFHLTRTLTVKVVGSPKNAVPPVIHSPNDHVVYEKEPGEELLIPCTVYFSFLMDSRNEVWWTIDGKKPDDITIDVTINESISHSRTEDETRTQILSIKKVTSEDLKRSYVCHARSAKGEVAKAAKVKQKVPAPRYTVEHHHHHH
# Legend:
# [1] = biological target: T1, human IL-36R on the cell surface …; test: cell-based or functional assay
# [2] = biological target: T1, human IL-36R on the cell surface …; test: cell-based or functional assay; remark: listed apart in the source
# [3] = biological target: T1, human IL-36R on the cell surface …; test: cell-based or functional assay; remark: listed apart in the source
# [4] = biological target: T2, hIL-36R-His (extracellular domain of …); test: SPR (Biacore T200), antibody captured by anti-human Fc, hIL-36R-His as analyte, 1:1 model
# [5] = biological target: T2, hIL-36R-His (extracellular domain of …); test: as above; remark: listed apart in the source
# [6] = biological target: T3, hIL-1R3-His (extracellular domain of …); test: SPR (Biacore T200), antibody captured by anti-human Fc, hIL-1R3-His as analyte, 1:1 model
# [7] = biological target: T2, hIL-36R-His (extracellular domain of …); test: SPR (Biacore T200), antibody captured by anti-human Fc, hIL-36R-His as analyte, 1:1 model; remark: listed apart in the source
# [8] = biological target: T1, human IL-36R on the cell surface …; test: cell-based or functional assay; remark: listed apart in the source
# [9] = biological target: T3, hIL-1R3-His (extracellular domain of …); test: SPR (Biacore T200), antibody captured by anti-human Fc, hIL-1R3-His as analyte, 1:1 model; remark: listed apart in the source
# [10] = biological target: T3, hIL-1R3-His (extracellular domain of …); test: as above; remark: listed apart in the source
binder,measurement,setting,value
"R49E11VH-h3+L26B11VK (antibody, V domains shown, Found as a Fab on phage; also called anti-human IL-36R monoclonal antibody; IL-36R monoclonal antibody) VH: QVQLVQSGAEVKKPGASVKVSCKASGYSFTSSWIHWVRQAPGQGLEWMGEINPGSGRSNYNENFQGRVTMTVDTSISTAYMELSRLRSDDTAVYYCTVVFYGEPYFPFWGQGTLVTVSS VL: EIVLTQSPGTLSLSPGERATLSCRASQSVIYSYLAWYQQKPGQAPRLLIYSASKRASGIPDRFSGSGSGTDFTLTISRLEPEDFAVYYCQQHAGIPVTFGQGTKVEIK",IC50 for inhibiting IL-36α from inducing hIL-8 secretion by HaCAT cells,[1],53.3 pM
same,IC50 for inhibiting IL-36β from inducing hIL-8 secretion by HaCAT cells,[1],276 pM
same,IC50 for inhibiting IL-36γ from inducing hIL-8 secretion by HaCAT cells,[1],1900 pM
same,IC50 for inhibiting IL-36γ-induced hIL-8 secretion by human monocytes,[2],67.7 pM
same,IC50 for inhibiting IL-36α from inducing hIL-8 secretion by HaCAT cells,[3],55.9 pM
same,IC50 for inhibiting IL-36β from inducing hIL-8 secretion by HaCAT cells,[3],280 pM
same,IC50 for inhibiting IL-36γ from inducing hIL-8 secretion by HaCAT cells,[3],1580 pM
same,Kd,[4],2900 pM
same,koff,[4],6.63e-05 s⁻¹
same,kon,[4],22800 M⁻¹ s⁻¹
same,Kd,[5],1760 pM
same,koff,[5],6.83e-05 s⁻¹
same,kon,[5],38900 M⁻¹ s⁻¹
"Common light chain bispecific antibody (R72B7VH/R1B9VH-h1+L36E9VK) (bispecific antibody, human IgG1, kappa, also called IL-36R×IL-1R3 common light chain bispecific antibody; R72B7/R1B9VH-h1+L36E9VK) heavy 1: QVQLVQSGAEVKKPGASVKVSCKASGYSFTSSWIHWVKQAPGQGLEWMGEINPGNVRSNYNENFRNKVTMTVDTSISTAYMELSRLRSDDTAVYYCTVINYGEPYFASWGQGTLVTVSSASTKGPSVFPLAPSSKSTSEGTAALGCLVKDYFPEPVTVSWNSGALTSGVHTFPAVLQSSGLYSLSSVVTVPSSSLGTQTYICNVDHKPSNTKVDKTVEPKSCDKTHTCPPCPAPEFEGGPSVFLFPPKPKDTLMISRTPEVTCVVVDVSQEDPEVQFNWYVDGVEVHNAKTKPREEQYNSTYRVVSVLTVLHQDWLNGKEYKCKVSNKALPASIEKTISKAKGQPREPQVCTLPPSQEEMTKNQVSLSCAVKGFYPSDIAVEWESNGQPENNYKTTPPVLDSDGSFFLVSKLTVDKSRWQEGNVFSCSVMHEALHNHYTQKSLSLSPGK heavy 2: EVQLVESGGGLVQPGGSLRLSCAASGFTFSSYAMSWVRQAPGKGLVWVAEISRGGSHTYYPDTVTGRFTISRDNAKNTLYLQMNSLRAEDTAVYYCARSYGNYPFDYWGQGTTVTVSSASTKGPSVFPLAPSSKSTSGGTAALGCLVKDYFPEPVTVSWNSGALTSGVHTFPAVLQSSGLYSLSSVVTVPSSSLGTQTYICNVNHKPSNTKVDKRVEPKSCDKTHTCPPCPAPEFEGGPSVFLFPPKPKDTLMISRTPEVTCVVVDVSHEDPEVKFNWYVDGVEVHNAKTKPREEQYNSTYRVVSVLTVLHQDWLNGKEYKCKVSNKALPASIEKTISKAKGQPREPQVYTLPPCREEMTKNQVSLWCLVKGFYPSDIAVEWESNGQPENNYKTTPPVLDSDGSFFLYSKLTVDKSRWQQGNVFSCSVMHEALHNHYTQKSLSLSPGK light: EIVLTQSPGTLSLSPGERATLSCRASQSVIGSYLAWYQQKPGQAPRLLIYSASKLASGIPDRFSGSGSGTDFTLTISRLEPEDFAVYYCQQDTRYPITFGQGTKVEIKRTVAAPSVFIFPPSDEQLKSGTASVVCLLNNFYPREAKVQWKVDNALQSGNSQESVTEQDSKDSTYSLSSTLTLSKADYEKHKVYACEVTHQGLSSPVTKSFNRGEC",Kd,[6],1440 pM
same,koff,[6],5.53e-05 s⁻¹
same,kon,[6],38400 M⁻¹ s⁻¹
same,IC50 for inhibiting IL-36γ-induced hIL-8 secretion by human monocytes,[2],1.71 pM
same,IC50 for inhibiting IL-36α from inducing hIL-8 secretion by HaCAT cells,[3],7.97 pM
same,IC50 for inhibiting IL-36β from inducing hIL-8 secretion by HaCAT cells,[3],27 pM
same,IC50 for inhibiting IL-36γ from inducing hIL-8 secretion by HaCAT cells,[3],45.3 pM
same,Kd,[7],1300 pM
same,koff,[7],3.98e-05 s⁻¹
same,kon,[7],30700 M⁻¹ s⁻¹
same,"fold increase of activity by IC50 against Spesolimab, IL-36α, HaCAT hIL-8 secretion",[8],~12 fold
same,"fold increase of activity by IC50 against Spesolimab, IL-36β, HaCAT hIL-8 secretion",[8],~4 fold
same,"fold increase of activity by IC50 against Spesolimab, IL-36γ, HaCAT hIL-8 secretion",[8],~15 fold
same,"fold increase of activity by IC50 against Spesolimab, IL-36γ, hIL-8 secretion by human monocytes",[8],~17 fold
"R1B9 (mouse anti-human IL-1R3 monoclonal antibody) (antibody, V domains shown, Found as a mouse scFv on phage; it was captured by anti-human IgG (Fc) in SPR and detected with anti-human IgG-FITC, which points to a human Fc; also called mouse IL-1R3 monoclonal antibody R1B9; parent R1B9) VH: EVKLVESGGGLVKPGGSLKLSCAASGFTFSSYAMSWVRQSPEKRLEWVAEISRGGSHTYYPDTVTGRFTISRDNAKNTLYLEMTSLRSEDTALYYCARSYGNYPFDYWGQGTTLTVSS VL: DIVMTQSPAIMSASPGEKVTMTCSASSSVSYMYWYQQKPGSSPRLLIYDTSNLASGVPVRFSGSGSGTSYSLTISRMEAEDAATYYCQQWSSYPLTFGAGTKLEIK",Kd,[9],1240 pM
same,koff,[9],9.32e-05 s⁻¹
same,kon,[9],75000 M⁻¹ s⁻¹
same,Kd,[10],1070 pM
same,koff,[10],0.00011 s⁻¹
same,kon,[10],103000 M⁻¹ s⁻¹
